T1: Aβ1-16 peptide
T1 construct: Soluble fragment from American Peptide Company
T1 peptide: DAEFRHDSGYEVHHQK

B1: monoclonal antibody 2324 (produced by hybridoma 10B10.2E6) (antibody, V domains shown)
VH: VTLKESGPGILKPSQTLSLTCSFSGFSLSTSGMGVGWIRQSSGKGLEWLAHIWWDDDKYYNPSLKSQLTISKDTSRNQVFLKITSVDTADTATYYCARRGVRHRDYFDYWGQGTTLTVSS
VL: DVLMTQTPLSLPVSLGDQASISCRSSQSIVHSNGNTYLEWYLQKPGQSPKLLIYKVSNRFSGVPDRFSGSGSGTDFTLKISRVEAEDLGVYYCFQGSRVPLTFGAGTKLELKR
B2: monoclonal antibody 2286 (produced by hybridoma 8A1.2A1) (antibody, V domains shown)
VH: EVKLLESGGGLVQPGGSLKLSCAASGFDFSRYWMNWVRQAPGKGLEWIGEINPDSSTINYTPSLKDKFIISRDNAKNTLYLQMSKVRSEDTALYYCARQMGYWGQGTTLTVSS
VL: DIQMTQTTSSLSASLGDRVTISCSASQGISNYLNWFQQKPDGTVKLLIYYTSSLHSGVPSRFSGSGSGTDYSLTISNLEPEDIATYYCQQYRKLPYTFGGGTKLEIKR
B3: Mouse 2286 Fab (Fab, V domains shown)
VH: B2 VH
VL: B2 VL

What was measured:
Aβ1-40 peptide = target: T2, Aβ1-40 peptide; assay: Affinity Kd of Table 2; method and format not stated in Example 1
T2 construct: Synthetic peptide, also the immunogen; also called Aβ peptide; β-amyloid peptide 1-40

Aβ1-42 peptide [1] = target: T3, Aβ1-42 peptide; assay: ELISA: peptide immobilized on plate + Ab + GAMIgG(Fc)HRP, absorbance 490 nm
T3 construct: also called 1-42 (WT); β-amyloid peptide 1-42

Aβ1-43 peptide [2] = target: T4, Aβ1-43 peptide; assay: as above
T4 construct: also called 1-43 (WT); β-amyloid peptide 1-43

[3] = target: T5, beta amyloid precursor protein (βAPP) (Homo sapiens, UniProt P05067 18-770); assay: ELISA: β-APP (gD) immobilized on plate + Ab + GAMIgG(Fc)HRP, absorbance 490 nm; antibody concentration not given
T5 construct: also called amyloid beta (A4) precursor protein
T5 sequence (P05067 other isoform, or with tags, fused parts or gaps limits assumed): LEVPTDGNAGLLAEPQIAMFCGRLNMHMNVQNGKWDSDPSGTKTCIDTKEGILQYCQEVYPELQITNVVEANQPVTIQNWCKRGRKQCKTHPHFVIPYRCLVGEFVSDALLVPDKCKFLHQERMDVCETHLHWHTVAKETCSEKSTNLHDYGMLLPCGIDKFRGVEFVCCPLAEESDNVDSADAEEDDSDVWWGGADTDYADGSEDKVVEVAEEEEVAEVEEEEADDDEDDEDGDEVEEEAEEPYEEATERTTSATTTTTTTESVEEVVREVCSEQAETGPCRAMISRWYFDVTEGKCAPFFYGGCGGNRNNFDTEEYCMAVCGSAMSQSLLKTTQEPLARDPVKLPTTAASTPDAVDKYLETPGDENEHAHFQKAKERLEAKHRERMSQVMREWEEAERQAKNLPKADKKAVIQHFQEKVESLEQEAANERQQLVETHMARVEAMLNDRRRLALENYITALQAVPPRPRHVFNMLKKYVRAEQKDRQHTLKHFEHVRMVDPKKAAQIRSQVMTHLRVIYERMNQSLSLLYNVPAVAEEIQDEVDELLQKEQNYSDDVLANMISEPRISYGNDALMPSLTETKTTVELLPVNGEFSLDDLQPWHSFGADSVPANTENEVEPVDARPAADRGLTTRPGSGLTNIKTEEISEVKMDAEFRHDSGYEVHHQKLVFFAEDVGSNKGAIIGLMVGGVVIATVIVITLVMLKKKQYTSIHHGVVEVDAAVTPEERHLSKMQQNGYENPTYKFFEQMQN

[4] = target: T6, Wild-type Aβ1-40 expressed as GST fusion protein (Homo sapiens (Human), UniProt P05067 672-711); assay: ELISA: GST fusion protein immobilized 0.25 µg per well, antibody at 2 nM, biotin goat anti-mouse (H+L) + streptavidin-HRP, OD450
T6 construct: Expressed in E. coli; also called Aβ1-40 (WT) GST fusion; WT Aβ1-40; not shown: Glutathione-S-Transferase (GST) fusion partner, Amersham Pharmacia Biotech system

[5] = target: T7, Aβ1-41 expressed as GST fusion protein (Homo sapiens (Human), UniProt P05067 672-712); assay: as above
T7 construct: also called 1-41 (WT); not shown: Glutathione-S-Transferase (GST) fusion partner, Amersham Pharmacia Biotech system
T7 sequence (P05067 672-712): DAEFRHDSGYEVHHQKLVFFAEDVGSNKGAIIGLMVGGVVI

[6] = target: T8, Aβ1-40 variant V36A expressed as GST fusion protein (Homo sapiens (Human), UniProt P05067 672-711, Expressed as a GST fusion protein; the GST part is left out.); assay: as above
T8 construct: also called V36A (1-40); not shown: GST fusion partner and its linker
T8 sequence (P05067 672-711 V707A limits assumed): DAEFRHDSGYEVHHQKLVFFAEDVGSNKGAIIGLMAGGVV

[7] = target: T9, Aβ1-40 variant V39A expressed as GST fusion protein (Homo sapiens (Human), UniProt P05067 672-711, Expressed as a GST fusion protein; the GST part is left out.); assay: as above
T9 construct: also called V39A (1-40); not shown: GST fusion partner and its linker
T9 sequence (P05067 672-711 V710A limits assumed): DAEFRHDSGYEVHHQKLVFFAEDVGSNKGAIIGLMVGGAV

[8] = target: T10, Aβ1-40 variant V40A expressed as GST fusion protein (Homo sapiens (Human), UniProt P05067 672-710, Expressed as a GST fusion protein; the GST part is left out.); assay: as above
T10 construct: also called V40A (1-40); not shown: GST fusion partner and its linker
T10 sequence (P05067 672-711 V711A limits assumed): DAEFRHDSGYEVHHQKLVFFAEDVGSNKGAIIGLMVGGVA

Aβ1-16 peptide [9] = target: T1, Aβ1-16 peptide; assay: SPR (Biacore 3000) competition: antibody 100 nM over biotin-Aβ1-40 on a streptavidin chip, with soluble peptide at 1000 nM; % of maximal binding
Aβ1-28 peptide [10] = target: T11, Aβ1-28 peptide; assay: as above
T11 construct: Soluble fragment from American Peptide Company

Aβ1-38 peptide [11] = target: T12, Aβ1-38 peptide; assay: as above
T12 construct: Soluble fragment from American Peptide Company

Aβ1-42 peptide [12] = target: T3, Aβ1-42 peptide; assay: ELISA: peptide immobilized on plate + Ab + GAMIgG(Fc)HRP, absorbance 490 nm; antibody concentration not given
Aβ1-43 peptide [13] = target: T4, Aβ1-43 peptide; assay: as above
[14] = target: T7, Aβ1-41 expressed as GST fusion protein; assay: ELISA: GST fusion protein immobilized 0.25 µg per well, biotin goat anti-mouse (H+L) + streptavidin-HRP, OD450
Aβ1-16 peptide [15] = target: T1, Aβ1-16 peptide; assay: SPR (Biacore 3000) competition: antibody over biotin-Aβ1-40 on a streptavidin chip, with soluble peptide; % of maximal binding
Aβ1-28 peptide [16] = target: T11, Aβ1-28 peptide; assay: as above
Aβ1-38 peptide [17] = target: T12, Aβ1-38 peptide; assay: as above
[18] = target: T13, Aβ1-40 polypeptide coupled to biotin, immobilized on a streptavidin-coated chip (coupled to biotin (position not given)); assay: SPR (BIAcore 3000), Fab over biotin-Aβ1-40 on SA chip, 'Steady-State' method
T13 construct: From Global Peptide Services; Used in the SPR assays; also called biotinylated Aβ peptide 1-40; immobilized Aβ1-40

| Binder | Kd (Aβ1-40 peptide) | binding result (Aβ1-42 peptide [1]) | binding result (Aβ1-43 peptide [2]) | binding result [3] | binding result [4] | binding result [5] | binding result [6] | binding result [7] | binding result [8] | binding result (Aβ1-16 peptide [9]) | binding result (Aβ1-28 peptide [10]) | binding result (Aβ1-38 peptide [11]) | binding result (Aβ1-42 peptide [12]) | binding result (Aβ1-43 peptide [13]) | binding result [14] | binding result (Aβ1-16 peptide [15]) | binding result (Aβ1-28 peptide [16]) | binding result (Aβ1-38 peptide [17]) | Kd [18] |
| --- | --- | --- | --- | --- | --- | --- | --- | --- | --- | --- | --- | --- | --- | --- | --- | --- | --- | --- | --- |
| B1 | 0.9 nM | binds | binds | no binding | binds | binds | binds | binds | binds | binds | binds | binds |  |  |  |  |  |  |  |
| B2 | 2.7 nM |  |  |  |  |  | binds | binds | binds |  |  |  | no binding | no binding | no binding (tested: 2 nM) | no binding | no binding | no binding |  |
| B3 |  |  |  |  |  |  |  |  |  |  |  |  |  |  |  |  |  |  | 76 nM |
